Results published in paper PMC6346101.
pKd: −log10 of the molar value.

What was measured:
[1] = molecular target: Influenza D virus nucleoprotein, strain D/bovine/France/2986/2012 (Influenza D virus, strain D/bovine/France/2986/2012); assay: SEC-MALLS
[2] = molecular target: Influenza D virus nucleoprotein, strain D/bovine/France/2986/2012 (Influenza D virus, strain D/bovine/France/2986/2012); assay: negative-stain electron microscopy
[3] = molecular target: His-tagged D/NP_(TAIL) (505-D/NP-552) (Influenza D virus, strain D/bovine/France/2986/2012); assay: thermal shift assay (Thermofluor)
[4] = molecular target: Biotinylated D/NP_(TAIL) fused to a biotinylation motif (Influenza D virus, strain D/bovine/France/2986/2012); assay: SPR; Biacore 3000; […]; 10 mM Hepes pH 7.4, 150 mM NaCl, 0.05% Tween 20; […]

human importin-α7 without its IBB domain (amino-acids 58 to 536), O60684 58-536 (domain or fragment; other documents disagree on this pair), sequence (O60684 58-536): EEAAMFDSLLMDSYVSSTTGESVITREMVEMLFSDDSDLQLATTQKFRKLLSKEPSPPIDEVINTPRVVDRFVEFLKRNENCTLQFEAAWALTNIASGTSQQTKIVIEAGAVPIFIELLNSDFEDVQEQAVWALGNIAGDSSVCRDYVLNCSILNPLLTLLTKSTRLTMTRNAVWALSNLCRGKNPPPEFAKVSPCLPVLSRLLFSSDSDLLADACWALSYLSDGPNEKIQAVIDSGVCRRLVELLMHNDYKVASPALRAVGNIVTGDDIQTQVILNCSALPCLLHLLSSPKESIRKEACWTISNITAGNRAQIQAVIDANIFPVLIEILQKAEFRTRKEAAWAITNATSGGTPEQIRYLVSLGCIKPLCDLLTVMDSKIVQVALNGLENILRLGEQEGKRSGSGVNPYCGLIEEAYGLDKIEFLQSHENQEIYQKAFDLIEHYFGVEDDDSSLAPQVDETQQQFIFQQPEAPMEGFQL

Row | Substance | stoichiometry N [1] | stoichiometry N [2] | stoichiometry N (importin-α7 per D/NP tetramer) [1] | rise of the melting temperature [3] [°C] | pKd [4]
1 | Influenza D virus nucleoprotein, strain D/bovine/France/2986/2012 (from UniProt A0A0E3VZU8 1-552) (natural protein) | 4 | 4 |  |  | 
2 | human importin-α7 without its IBB domain (amino-acids 58 to 536), O60684 58-536 (domain or fragment; other documents disagree on this pair) |  |  | 4 | 5 | 7.00
